# Reference: the nanobody polyreactivity screen of Harvey et al. (2022)
# Assay: yeast display, Sf9 membrane polyspecificity reagent, FACS + sequencing; frameworks hold sequencing errors
# How it was run: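 Using colony PCR, genes from sorted yeast display clones were amplified, then sequenced on MiSeq at 2 × 250 and filtered by CDR length. The clones had been stained with 10% biotinylated, detergent-solubilized Sf9 membrane reagent for 1 hour at 4 °C and sorted by FACS into low and high (top ~1%) gates on anti-HA and streptavidin fluorescence. Polyreactivity labels come from the gate of origin.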
row,Sequence,polyreactivity (PSR sort gate)
1,QVQLVESGGGLVQAGGSLRLSCDASGRIFAYYARGWYRQAPGKERELVAAITTNGGGTYYADSVKGRFTISRDNAKNTVYLQMNSLKPEDTGVYYCNAVKQRSSIFDYWGQGTQVTVSS,low polyreactivity
2,QVQLVESGGGLVQAGGSLRLSCDASGRIFSRNSMGWYRQAPGKERELVAANTWRGGSTYYADSVKGRFTISRDNAKNTVYLQLNSLKPEDPAVYYCNRDYRQYGYAYSGRYYWGQGTQVTVSS,high polyreactivity
3,QVQLVESGGGLVQAGGSLRLSCDASGRIISYNAMGWYRQAPGKERELVAAISWGGGSTYYADSVKGRFTISRDNAKNTVYLQMNSLKPEDTAVYYCAKGWYRIKRNDYWGQGTQVTVSS,low polyreactivity
4,QVQLVESGGGLVQAGGSLRLSCDASGRILIGYTMGWYRQAPGKERELVARINYSGGSTYYADSVKGRFTISRDNAKNTVYLQMNSLKPEDTAVYYCDADVRRGYYTWPPRRVYYWGQGTQVTVSS,high polyreactivity
5,QVQLVESGGGLVQAGGSLRLSCDASGRLFYRNAMGWYRQAPGKDRELVASITSAGRTYYADSVKGRFTISRDNAKNTVYLQMNSLKPEDTAVYYCAVRGYAKSFSNAKYYYWGQGTQVTVSS,low polyreactivity
6,QVQLVESGGGLVQAGGSLRLSCDASGRMFALYAMGWYRQAPGKERELVAAITWRGGRTRYADSVKGRFTISRDNAKNTVYLQMTSLKPEDTAVYYCNKRLFASRYDYWGQGTQVTVSS,high polyreactivity
7,QVQLVESGGGLVQAGGSLRLSCDASGRTFLYYAMGWSRQAPGKERELVAAISSGGSTNYADSVKGRFTISRDNAKNTVYLQMNSLKPEDTAVYYCNADYTSRDTSDVIYEYDYWGQGTQVTVTS,low polyreactivity
8,QVQLVESGGGLVQAGGSLRLSCDASGRTFPINAMGWYRQAPGKERELVAAISSGDGITYYADSVKGRFTISRDNAKNTVYLQMNSLKPEDTAVYYCAKELSQGLRYDYWGQGTQVTVSS,high polyreactivity
9,QVQLVESGGGLVQAGGSLRLSCDASGRTFRYNAMGWYRQAPGKERELVAAISTRGGSTYYADSVKGRFTISRDNAKNTVYLQMNSLKPEDTAVYYCAADGRYAYGYNHWGQGTQVTVSS,low polyreactivity
10,QVQLVESGGGLVQAGGSLRLSCDASGRTFWRYAMGWYRQAPGKERELVATISSGGSTNYADSVKGRFTISRDNAKNTVYLQMNSLKPEDTAVYYCNAEYSYYDLLAYDYWGQGTQVTVSS,low polyreactivity
11,QVQLVESGGGLVQAGGSLRLSCDASGRTSVIYAMGWYRQAPGKERELVASIRRGGSTSYADSVKGRFTISRDNAKNTVYLQMNSLKPEDTAVYYCASTFKSGMDYWGQGTQVTVSS,high polyreactivity
12,QVQLVESGGGLVQAGGSLRLSCDASGSIFDHNSMGWYRQAPGKERELVAAISSNGVRTYYADSVKGRFTISRDNAKNTVYLQMNSLKTEDTAVYYCNAQRFVGLNVYGYDYWGQGTQVTVSS,high polyreactivity
13,QVQLVESGGGLVQAGGSLRLSCDASGSIFGKYTMGWYRQAPGKVRELVAAISKRGGSTRYADSVKGRFTISRDNAKNTVYLQMNSLKPEDTAVYYCAAYRYWMYRYQIVNYGYWGQGTQVTVSS,high polyreactivity
14,QVQLVESGGGLVQAGGSLRLSCDASGSIFKLNAMGWYRQAPGKERELVAAITSSGDSTYYADSVKGRFTISRDNAKNTVYLQMNSLKPEDTAVFYCNREDAGIMDYWGQGTHVTVSS,low polyreactivity
15,QVQLVESGGGLVQAGGSLRLSCDASGSIFSKYAMGWYRQAPGKERELVAAISWSGTSTYYADSVKGRFTISRDNAKNTVYLQMNSLKPEDTAVYYCAASSPRSLSLLGYWGQGTQVTVSS,low polyreactivity
16,QVQLVESGGGLVQAGGSLRLSCDASGSILGTYALGWSRQAPGKERELVAAISSSGRTSYADSVKGRFTISRDNAKNTVYLQMNSLKPEDTAVYYCIASNYIVLINDPDAAPWLYDYWGQGTQVTVSS,low polyreactivity
17,QVQLVESGGGLVQAGGSLRLSCDASGSTFGWYAMGWYRQAPGKERELVAAISKNGGRTYYADSVKGRFTISRDNAKNTVYLQMNSLKPVDTAVYYCNKVSKTVRDFDYWGQGTQVTVSS,high polyreactivity
18,QVQLVESGGGLVQAGGSLRLSCDASGSTFNANAMGWYRQAPWKERVLVAAISWNGGRTYYADSVKGRFTISRDNAKNTVYLQMNSLKPEDTAVYYCALVYTAGRNYYYWGQGTQVTVSS,high polyreactivity
19,QVQLVESGGGLVQAGGSLRLSCDASGSTFPFYAMARYRQAPRKERELVAAIRNTGNTYYADSVKGSFTISRDNAKNTAYLQMNSLNPEDPAVYYCAKALRSASDYWGQGTQVTVSS,low polyreactivity
20,QVQLVESGGGLVQAGGSLRLSCDASGSTFVRYVMRWYRHAPGKEMELVAAISRRGGSTYYADSVKGRFTISRDNAKNTVYLQMNSLKPEDTAVYYCARTVCYRTLLESDSCGQGTQVTVSS,high polyreactivity
21,QVQLVESGGGLVQAGGSLRLSCDASGSTFWFNDMGWYRQAPGKERELVAAIDWSDGSTYYADSVKGRFTISRDNAKNTVYLQMNSLKPEDTAVYFCAADHRYSARRSVPTLYDYWGQGTQVTVSS,low polyreactivity

row,Sequence,polyreactivity (PSR sort gate)
1,QVQLVESGGGLVQAGGSLRLSCDASGSTIYPYAMGWYRQAPGKERELVAAISSGGRTYYADSVKGRFTISRDNAKTTVYLQMNSLKPEDTAGYYCATYYYGWYTIDFYYWGQGTQVTVSS,high polyreactivity
2,QVQLVESGGGLVQAGGSLRLSCDDSGRTFYPYAMGRYRHAPGKERELVAAISYRGGSTYYADSVKGRFTISRDNAKNTVYLQMNCLKPEDRAVYYCAKRGYASGSKWDYGYWGQGTQLTVSS,high polyreactivity
3,QVQLVESGGGLVQAGGSLRLSCGASGGFFYFNAMGRYRQAPGKEREVVASITWSGGNTYYADSVKGRFTISRDNAKHTVDLQMNSLTPEDTAVYYCAADTLEYRPTYDYWGQGTQVTVSS,low polyreactivity
4,QVQLVESGGGLVQAGGSLRLSCGASGRIFAVNAMGWYRQARGKERELVAAITNVGSTNYADSVKGRFTISRDNAKNTVYLQMNSLKPEDTAVYYCNADLAQEDWKMDYWGLGTQVTVSS,low polyreactivity
5,QVQLVESGGGLVQAGGSLRLSCGASGRIFPGNAMGWYRQATGKERELVAGISFSGGRTYYADSVKGRFTISRDNAKNTVYLQMNSLTPEDSAVYYCATKYLQHWWRYDYWGQGTQVTVSS,low polyreactivity
6,QVQLVESGGGLVQAGGSLRLSCGASGRTFAIYVMGWYRQAPGKERELVAAISRGGSTYYADSVKGRFTISRDNAKNTVYLQMNSLKPEDTAVYYCAAGTGTTSRYYYWGQGTQVTVSS,high polyreactivity
7,QVQLVESGGGLVQAGGSLRLSCGASGSFFYFYSMGWYRQAPGKEREVVAAITDGGSTHYADSVKGRFTISRDNAKNTVDLQMNSLKPEDTAVYYCAAQWHYYLGSGYQYDYWGQGTQVTVSS,low polyreactivity
8,QVQLVESGGGLVQAGGSLRLSCGASGSTSDIYAMGWYRQAPGKESEFGAAISLTGGTTYYADSVKGRFTISCENAKNTVYLQMNSLKQEDTAVYYCNADVGWWGYDDDYWGQGTQVTVSS,high polyreactivity
9,QVQLVESGGGLVQAGGSLRLSCGASGYIFDRYPMGWYRQAPGKEREVVASISRRGGSTYYADSVKGRFTISRDNAKNTVYLQMNSLKPEATAVYYCAAKWPFRRSAVVRYDYWGQGTQVTVSS,high polyreactivity
10,QVQLVESGGGLVQAGGSLRLSCPASASNYAAYTMAWYRQAPGKERECVAAITSGGSTNYADSVKGRFTISRDNAKNTVYLQMNSLKPEDTAVYYCAAEDLNYYFWRSLWFGIYDDWGQGTQVTVSS,low polyreactivity
11,QVQLVESGGGLVQAGGSLRLSCPASGFIFSIYTMGWYRQAPGKERELVAAITRSGSSTYYADSVKGRFTISRDNAKNTVYLQMNSLKPEDTAVSYCNRLCFGQYQPFYGYWGQGTQVTVSS,high polyreactivity
12,QVQLVESGGGLVQAGGSLRLSCPASGFTFYVNAMGWSRQAPGKERELVAGITTSDGSTYYADSVKGRFTISRDNAKNNVYLQMNSLKPEDTAVYYCAAAITWYQLYQRSGGDYWGQGTQVTVSS,low polyreactivity
13,QVQLVESGGGLVQAGGSLRLSCPASGFTILDYAMGWYRQAPGKEREMVATINWSDVSTYYADSVKGRFTISRDTAKNTVYLQMNSLKPEDTAVYYCAVDVLTVGQSYDHWGQGTQVTVSS,high polyreactivity
14,QVQLVESGGGLVQAGGSLRLSCPASGGIFEGNAMGWYRQAPGKEMELVASITYGGGSTYYADSVKGRFTISRDNAKNTVYLQMNSLKPEDTAVYYCAADATTPGVQNGYGSWGQGTQVTVSS,low polyreactivity
15,QVQLVESGGGLVQAGGSLRLSCPASGITFVPNAMGWYRQAPGKERELVARIDNGVSTNYADSVKGRFTISRDNAKNTVYLQMNSLKPEDTAVYYCAKDGYWGDWDLDYWGQGTQVTVSS,low polyreactivity
16,QVQLVESGGGLVQAGGSLRLSCPASGLIFLHNAMGWYRQAPGKERELVATISLSGGSTYADSVKGRFTISRDNAKNTVYLQLYSLKPEDTAVYYCAAGGQYYIIRYDYWGQGTQVTVSS,low polyreactivity
17,QVQLVESGGGLVQAGGSLRLSCPASGLTFQRYAMGWYRQAPGKERELVAAITVGGGRTYYADSVKGRFTISRDNAKNTVYLQMNSLKPEDTAVYYCAADSHASTYDYWGQGTQVTVSS,low polyreactivity
18,QVQLVESGGGLVQAGGSLRLSCPASGLTFWLYALGWYRQAPGKERELVAAITRSGGSTSYADSVKGRFTISRDNAKNTVYLQMNSLKPEDTAVYYCNADSPGYTAVRLVEFDYWGQGTQVTVSS,low polyreactivity
19,QVQLVESGGGLVQAGGSLRLSCPASGNIFLSYAMGWYRQAPGKERELVAGISASGGRTYYADSVKGRFTISRDNAKNTVYLQMNSLKPEDTAVYYCATRGQTRTTTRYYSWGQGTQVTVSS,high polyreactivity
20,QVQLVESGGGLVQAGGSLRLSCPASGRIFVLGWYRQAPGKERELVAAINDSGDITYYADSVKGRFSISRDNAKYTVYLQMNSLKPEDTAVYYCAASAAYYGFYKSVTYDYWGQGSQVTVSS,low polyreactivity
